Literature values, collected in patent US11097005B2, “Use of cadherin-11 antagonists to treat metabolic disorders and/or increase insulin sensitivity” (The Brigham and Women's Hospital, Inc., priority 2014, dated 2021).

Conditions: ob/ob mice; IL-33 administration

B1: IL-33: cytokine, ST2 ligand; administration to ob/ob mice cited from literature (protein, UniProt Q8BVZ5 1-266, looked up)
Interleukin-33: MRPRMKYSNSKISPAKFSSTAGEALVPPCKIRRSQQKTKEFCHVYCMRLRSGLTIRKETSYFRKEPTKRYSLKSGTKHEENFSAYPRDSRKRSLLGSIQAFAASVDTLSIQGTSLLTQSPASLSTYNDQSVSFVLENGCYVINVDDSGKDQEQDQVLLRYYESPCPASQSGDGVDGKKLMVNMSPIKDTDIWLHANDKDYSVELQRGDVSPPEQAFFVLHKKSSDFVSFECKNLPGTYIGVKDNQLALVEEKDESCNNIMFKLSKI
accumulation of M2-macrophages in adipose tissue: improve
glucose tolerance: improve
